This assay addresses T1, Sec63p (Saccharomyces cerevisiae (endogenous in …, UniProt P14906 1-663)).
T1 sequence (looked up): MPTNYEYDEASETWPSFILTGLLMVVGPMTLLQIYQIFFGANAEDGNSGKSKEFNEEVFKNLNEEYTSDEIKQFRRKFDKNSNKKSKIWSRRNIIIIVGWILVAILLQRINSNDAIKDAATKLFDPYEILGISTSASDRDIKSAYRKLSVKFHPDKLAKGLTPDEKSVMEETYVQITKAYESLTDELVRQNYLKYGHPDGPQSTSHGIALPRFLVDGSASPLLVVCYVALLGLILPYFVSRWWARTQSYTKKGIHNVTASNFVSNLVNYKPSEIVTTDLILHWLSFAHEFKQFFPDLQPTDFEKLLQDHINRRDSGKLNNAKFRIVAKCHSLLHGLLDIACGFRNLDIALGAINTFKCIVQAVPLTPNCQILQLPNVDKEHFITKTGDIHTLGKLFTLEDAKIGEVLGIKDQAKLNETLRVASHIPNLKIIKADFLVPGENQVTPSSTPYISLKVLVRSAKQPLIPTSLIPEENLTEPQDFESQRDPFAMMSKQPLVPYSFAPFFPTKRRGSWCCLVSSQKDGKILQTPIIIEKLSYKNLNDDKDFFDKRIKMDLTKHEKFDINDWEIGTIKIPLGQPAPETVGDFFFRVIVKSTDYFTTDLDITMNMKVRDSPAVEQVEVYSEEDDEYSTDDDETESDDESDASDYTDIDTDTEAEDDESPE
Description: co-elution on hydroxylapatite chromatography.

Usually stoichiometry N stands for the number of molecules, sites or subunits per partner or assembly.

B1: BiP/Kar2p (natural protein)
chain: not shown
In the case of B1, the “stoichiometry N” value is 1.4 Sec63p per BiP.

The values above are taken from article PMC2290880 (The Journal of Cell Biology, 1993).
